The series in a line: label from the status in PepcDB records.

With “MIGKTVIVGSKNMKEKILKFITSKFFVLGIQLLATIAVVYFTFKLDLVPTKYLIAGIVVLALLLAGFFGIIYSSEQKIKKGLSSKRGIVTKIISLLTSIILIAGCTYISRGNNFIENVSNATGQEYVVSVISLKNGKITKLKDLDSSKKIGVSYEKDTVTIAEALKDLDTEIGDHEYTKYDNYASLADALYEGKVDAIVVGEQYRTMLQTNHEEFNDVTKVLKSYAYDAKMEVTTKQTDVTENAFSIYVTGIDVYGSLKTVSRSDVNLIVTVNPKTKQILMTSIPRDCQINLHKNGKMDKLTHTGIYGTSETINTIQDLLEMKINYFARTNFSGMTNIVDALGGITVNSSEAFETLHGNYQISEGLNEMDGDKALCFVRERKRLKRGDFARGENQQKVLKAMLDKAMSPKIITNFNNILSAVEGCFETDMSDKEIKSLINMQLNDMADWKIINVQIEGEYQLMDDTFSMKGTNSDVMIPFESHIERVRELINKVEEGKEIKDSELKGLTH”, the protein production result is recorded as “failed”.

Regarding “MIGLSKSRGALSMENQKMPEYETIRAAVAGEKWAVEKVVECYKDEIDRLSTVAVRQPDGSTKQEINEDMRQSITKKLIEALPQFPLEEMEKGNVRLEHHHHHH”, the protein production entry is listed as “not failed”. As for “MIGPMWSDVIDLRDFYATSQGQLTRRLIGRSLRALWPEVRGCRVLGLGYAVPFLQPFADEAERVVAMMPAPMGAVRWPSVGPVQGALADELELPLPDRSIDRLLLIHGLEFADHAHGLLRECWRVLADNGRLMVVVPNRRATWARMERSPFANGQPYSEGQLTRLLRDRLFTPIASSTALFMPPSRSRMVMGSASLLEQIGCRLFPAFGGVVVVDCAKQIAAPVLRSAVASRRVYVGVGLSQPLQGSSRAGFKNPAPFTGVDGS”, the entry is “failed”; as for “MIGREGVTTLRFTVKQQFITHKHTLYGVAAILLWGSLMALTRRVAEEFSPIGGAALIYTVSTLFLLFAMGMPRLKAGSSRYILIGGALFVSYEICLALALGMASDRLQAIEMSVINYLWPALTVLIAVLLSQRAVSFWVYPSVGLAFAGVAWTIVAEQGISLADFSARIATNPAVYAMALTGAFIWAIYCNVTQRLARGQNAIVLFFAATAATLWLQYALSNEPALSFTGSSMGTLLLTGIVMGSGYALWNVAILRGNMLLLATLSYFTPVISTLFSSLILGVVLGLSFWQGVIMVTFGSLICWWVTRESSSSTGEVPETPPPLKEQS”, “failed”; as for “MIHQIESVQAGKKIYFLSDFHLGVPSDEESWKREKKIIRFLDSITPAAQAVFLLGDIFDFWFEYKHVIPKGFARLQGKIAQLTDSGIPVYLYTGNHDLWMFGYLEKELGVTVFHKPIDWEIAGKKFLIGHGDGLGPGDFVYKCTKKVFVNPFFQWVFKMTPPAIGMGIAKFWSGKSRQHNTDDRFFEEKEFLWQYCKEQNVLKHRSYYIFGHRHMPLDLPVGDSARYVNIGDWIKFDTFAEFDGNELKLISWKETSEPYSL”, “failed”. The result for “MIHRRCVGGRRNHGGRVAQGSSRSRLPQQGTPVTMSSTSSTPPWNVQRLPGADGRVFLVTGGNAGIGYFVAEQLSATGATVVLGSRNPAKAEAATASIRARVPGSRVRAVRLDLADLSSLETAVESLEVERLDAVVHNAGVALDDPPREETGDGHELMFGTNHLGHFALTQWLMPLLSAAPAARVVTMGSFAAKSERLDLDDLQSRKDYQPKRTYGRSKLAQMYFGVELDRRLRAAGSTVASVVVHPGGALDSLTPSRPPVHVRSTGARLSAAPAALLLQGKHAGAWPAVRAVLDPAVRGGQLWGPRVFGLRGEPRREPVWDHLADPSVAARLWDASCDLMGTDLSTISG” reads “failed”; that for “MIIDEKRVQEIKNGETSLGIEFGSTRIKAVLIANDFSILASGSFEWETSLENGVWTYSIDEIWKGLQYSYQKLFAEVKEKYGVVLSKIGSIGFSAMMHGYMAFDNKGELLVPFRTWRNTMTEEAAKKLTDLFKFNIPERWSIAHLYQAILRNEPHVEKIDFLTTLAGYIHWQLTGEKVLGIGDASGMFPIDTQTHNYDKNMLETFKNLPEVKKHSLDLEKLLPKVLLAGENAGVLTLEGAKKLDVSGNLQPGIPLCPPEGDAGTGMVATNSVAPRTGNVSAGTSIFAMVVLEKPLNRVHPEIDIVTTPSGDLVAMVHANNGCSDLEAWVNIFQQFTEAINVDMRKDLLYMALYTQAFQGDPDCGGVLAYNYFAGENITGVSEGRPMVVRKAKSNFNLPNFMRAHLFTSLGALKIGMDILLKDEAVKLDKLLGHGGLFKTPIVGQAAVAGAVNAPVSVMETAGEGGAWGIALLASYLRSKENDSTLPEFLSKNVFAGYVAEEVQPDPKDVKGFEEFIERYKKGIAIEQAAVEHLILEHHHHHH”, “failed”.

These data come from a protein production outcome set (Wang et al. 2014).
